Test [1] deals with T1, Monkey CD96-3xFlag (cyno-CD96-3xFLAG) (cynomolgus monkey).
T1 construct: Signal peptide marked only by lost underlining; also called cynomolgus CD96
T1 chain: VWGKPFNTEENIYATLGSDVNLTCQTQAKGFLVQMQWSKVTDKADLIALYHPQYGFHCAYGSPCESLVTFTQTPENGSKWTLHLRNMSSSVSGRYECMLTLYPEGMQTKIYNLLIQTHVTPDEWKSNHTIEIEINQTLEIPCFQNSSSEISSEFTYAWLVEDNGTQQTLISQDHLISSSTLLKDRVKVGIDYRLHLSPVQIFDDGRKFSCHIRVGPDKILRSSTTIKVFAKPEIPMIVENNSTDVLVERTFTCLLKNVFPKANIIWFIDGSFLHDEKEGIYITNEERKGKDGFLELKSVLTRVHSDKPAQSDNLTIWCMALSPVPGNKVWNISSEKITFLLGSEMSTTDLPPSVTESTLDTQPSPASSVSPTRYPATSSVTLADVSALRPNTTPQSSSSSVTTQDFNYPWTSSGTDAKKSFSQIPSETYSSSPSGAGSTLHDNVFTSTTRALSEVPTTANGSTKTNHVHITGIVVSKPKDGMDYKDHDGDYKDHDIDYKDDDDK
Description: ELISA, cyno-CD96-3xFLAG coated. On the procedure: The cross-reactive binding capacity of the anti-CD96 antibody to monkey CD96 was tested by ELISA to determine the binding of the antibody to cynomolgus CD96 protein. The 3×FLAG-tagged CD96 fusion protein was used to coat the microtiter plate, and the intensity of the signal after adding with the antibody was used for evaluating the binding activity of the antibody and cynomolgus CD96. The specific experimental method is as follows:
cyno-CD96-3×FLAG with the amino acid sequence of SEQ ID NO: 95 prepared in Embodiment 4 was diluted to a concentration of 2 μg/ml with PBS buffer (Shanghai Yuanpei Biotechnology Co., Ltd. Cat No. B320), pH 7.4, added to a 96-well microtiter plate (Corning, Cat No. CLS3590-100EA) at a volume of 50 μl/well, and placed in an incubator at 37° C. for 2 hours. After discarding the liquid, 250 μl/well of 5% skim milk (BD, 232100) blocking solution diluted with PBS was added, and the plate was incubated in an incubator at 37° C. for 2.5 hours or at 4° C. overnight (16-18 hours) for blocking. After blocking, the blocking solution was discarded, and the plate was washed 4 times with PBST buffer (pH 7.4 PBS containing 0.05% tween-20). 50 μl/well of different concentrations of the antibodies to be tested (hybridoma purification antibody or humanized antibody) diluted with sample dilution was added, and the plate was incubated in an incubator at 37° C. for 1 hour. […] After washing the plate 4 times with PBST, 50 μl/well of TMB chromogenic substrate (KPL, Cat No. 52-00-03) was added, and the plate was incubated at room temperature for 5-15 minutes, followed by adding 50 μl/well of 1M H₂SO₄ to stop the reaction. The absorption value was read at 450 nm with a NOVOStar microplate reader, and the EC50 value of the binding of CD96 antibody to monkey CD96 was calculated (see Table 14).
A general note: An ELISA detects its analyte on a solid surface through an enzyme-linked reagent.

Test [2] deals with T2, CD96 extracellular region with His tag (CD96-His) (human, UniProt P40200 22-519).
T2 construct: also called CD96-ECD-His; Bio-CD96-His (biotin-labelled form)
T2 sequence: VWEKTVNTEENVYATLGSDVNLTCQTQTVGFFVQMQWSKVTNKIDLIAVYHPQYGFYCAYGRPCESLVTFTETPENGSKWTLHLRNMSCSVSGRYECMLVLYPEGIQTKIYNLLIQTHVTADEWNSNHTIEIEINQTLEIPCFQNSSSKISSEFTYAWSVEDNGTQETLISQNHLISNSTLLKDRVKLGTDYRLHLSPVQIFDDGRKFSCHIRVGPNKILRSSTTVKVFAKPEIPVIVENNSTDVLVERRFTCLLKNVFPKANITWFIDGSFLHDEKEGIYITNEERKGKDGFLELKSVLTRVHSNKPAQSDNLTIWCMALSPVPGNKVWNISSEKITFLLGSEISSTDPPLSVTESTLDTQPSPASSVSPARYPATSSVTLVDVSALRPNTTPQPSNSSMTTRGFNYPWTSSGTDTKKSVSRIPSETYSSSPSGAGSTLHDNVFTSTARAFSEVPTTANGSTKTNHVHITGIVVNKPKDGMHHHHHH
Description: blocking cell ELISA: antibody premixed with CD96 antigen (0.5 ug/mL), binding to fixed CD155-CHO cells. On the procedure: CD155-CHO cells (constructed by Shanghai Hengrui) were seeded in 96-well culture plates at a density of 9×10⁴/100 μL/well and cultured overnight. After aspirating the supernatant, the plate was washed once with PBS, 100 μl/well of immunostaining fixation solution (Biyuntian, Cat No. P0098) was added and fixed for one hour at room temperature, and the plate was washed three times with PBS. After discarding the liquid, 250 μl/well of 5% skim milk (BD, Cat No. 232100) blocking solution diluted with PBS was added, and the plate was blocked in an incubator at 37° C. for 2.5 hours. After blocking, the blocking solution was discarded, subsequently, the plate was washed 4 times with PBST buffer (pH 7.4 PBS containing 0.05% tween-20). 50 μl/well of antigen-antibody pre-incubation solution (gradient concentrations of the hybridoma antibody to be tested and CD96-Fc at a final concentration of 0.5 μg/mL were premixed at 37° C. for 30 minutes, or gradient concentrations of humanized antibody samples and Bio-CD96-His at a final concentration of 0.5 μg/mL were premixed at 37° C. for 30 minutes) (Biotin-labeled kit, Dongren Chemical, Cat No. LK03) was added, and the plate was incubated in an incubator at 37° C. for 2 hours. After incubation, the reaction solution in the microtiter plate was discarded, the plate was washed 4 times with PBST, and 50 μl/well of HRP-labeled goat anti-human secondary antibody (Jackson Immuno Research, Cat No. 109-035-003) diluted with sample dilution or HRP-labeled streptavidin diluted with sample dilution (Sigma, Cat No. 52438) was added, followed by incubating at 37° C. for 1 hour. After washing the plate 4 times with PBST, 50 μl/well of TMB chromogenic substrate (KPL, Cat No. 52-00-03) was added, the plate was incubated at room temperature for 10-20 minutes, followed by adding 50 μl/well of 1M H₂SO₄ to stop the reaction. The absorption value was read at 450 nm with a NOVOStar microplate reader, and the EC50 value of the effect of CD96 antibody on blocking the binding between the antigens and CD155-CHO cells was calculated (see FIG. 2 and Table 16).

Two molecules from patent US20200347130A1 (JIANGSU HENGRUI MEDICINE, published 2020) can be followed below.

B1: ch1722 (antibody, human IgG4 S228P, kappa, V domains shown)
VH: QVQLQQPGAELVKPGTSVKLSCKASGNTFIDYWMHWVKQRPGQGLEWIGMLHPNSGTTSFNEKFKIKTTLTIDKSSSTAYMQLSSLTSEDSAIYYCASDYSGPFAYWGQGTLVTVSA
VL: QIVLTQSPGIMSAFPGEKVTMTCSASSSVNYIHWYQQKSGTSPKRWIFDTSKLASGVPARFSGSGSGTSYSLTISSMEAEDAATYYCQQWRSNPLTFGAGTKLELKR
notes: also called chi722; chimeric antibody corresponding to m1722
Broadly, the EC50 is the concentration needed to bring the measured effect to its halfway point. The IC50 is the concentration needed to halve the response being measured. Regarding B1, the EC50 in test [1] was 0.05 nM. In test [2], this molecule yielded an IC50 of 0.159 nM.

B2: ch1721 (antibody, human IgG4 S228P, kappa, V domains shown)
VH: QVQLKESGPGLVAPSQSLSITCTVSGFSLISYGVNWVRQPPGKGLEWLGVIWGDGSTNYHSALISRLSISKDDSKSQVFLNLNSLQTDDTATYYCAKNYFYGSRYGYAMDSWGQGISVTVSS
VL: DIQMTQSPASLSAAVGETVTITCRASENIYSSLAWYQQKQGKSPQLLVYNAKTLIETVASRFSGSGSGTQYSLKINSLQPEDFGSFYCQHHYGTPYTFGGGTKLEIKR
notes: also called chimeric antibody corresponding to m1721
Molecule B2 showed an EC50 in test [1] of 0.046 nM. In test [2], this molecule yielded an IC50 of 0.214 nM.
